Test results taken from the MegaScale stability set (Tsuboyama et al. 2023).

B1: HEEH_KT_rd6_3546 (parent)
chain: SEEDKEREHWERLNRDFELRVLDTTFIAHHAEEVIKLLRWLEK

Variants of: B1
Assay: folding stability dG (cDNA display proteolysis); higher = more stable
Settings: PBS, room temperature

Variant	folding stability dG [kcal/mol]
SEEDKEREHWERLGRDFELRVLDTTFIAHHAEEVIKLLRWLEK	1.55
SEEDKEREHWERLIRDFELRVLDTTFIAHHAEEVIKLLRWLEK	2.2
SEEDKEREHWERLCRDFELRVLDTTFIAHHAEEVIKLLRWLEK	2.44
SEEDKEREHWERLLRDFELRVLDTTFIAHHAEEVIKLLRWLEK	2.39
SEEDKEREHWERLERDFELRVLDTTFIAHHAEEVIKLLRWLEK	1.2
SEEDKEREHWERLMRDFELRVLDTTFIAHHAEEVIKLLRWLEK	2.22
SEEDKEREHWERLKRDFELRVLDTTFIAHHAEEVIKLLRWLEK	1.72
SEEDKEREHWERLPRDFELRVLDTTFIAHHAEEVIKLLRWLEK	1.8
SEEDKEREHWERLYRDFELRVLDTTFIAHHAEEVIKLLRWLEK	2.2
SEEDKEREHWERLDRDFELRVLDTTFIAHHAEEVIKLLRWLEK	1.1
SEEDKEREHWERLWRDFELRVLDTTFIAHHAEEVIKLLRWLEK	2.69
SEEDKEREHWERLQRDFELRVLDTTFIAHHAEEVIKLLRWLEK	1.67
SEEDKEREHWERLRRDFELRVLDTTFIAHHAEEVIKLLRWLEK	2.11
SEEDKEREHWERLHRDFELRVLDTTFIAHHAEEVIKLLRWLEK	1.58
SEEDKEREHWERLTRDFELRVLDTTFIAHHAEEVIKLLRWLEK	1.8
SEEDKEREHWERLVRDFELRVLDTTFIAHHAEEVIKLLRWLEK	2.21
SEEDKEREHWERLSRDFELRVLDTTFIAHHAEEVIKLLRWLEK	1.96
SEEDKEREHWERLARDFELRVLDTTFIAHHAEEVIKLLRWLEK	1.84
SEEDKEREHWERLFRDFELRVLDTTFIAHHAEEVIKLLRWLEK	2.4
SEEDKEREHWERLNKDFELRVLDTTFIAHHAEEVIKLLRWLEK	1.25
SEEDKEREHWERLNMDFELRVLDTTFIAHHAEEVIKLLRWLEK	1.75
SEEDKEREHWERLNDDFELRVLDTTFIAHHAEEVIKLLRWLEK	1.22
SEEDKEREHWERLNQDFELRVLDTTFIAHHAEEVIKLLRWLEK	1.08
SEEDKEREHWERLNNDFELRVLDTTFIAHHAEEVIKLLRWLEK	1.26

Variant	folding stability dG [kcal/mol]
SEEDKEREHWERLNPDFELRVLDTTFIAHHAEEVIKLLRWLEK	1.11
SEEDKEREHWERLNYDFELRVLDTTFIAHHAEEVIKLLRWLEK	1.84
SEEDKEREHWERLNLDFELRVLDTTFIAHHAEEVIKLLRWLEK	2.07
SEEDKEREHWERLNADFELRVLDTTFIAHHAEEVIKLLRWLEK	1.55
SEEDKEREHWERLNCDFELRVLDTTFIAHHAEEVIKLLRWLEK	2.36
SEEDKEREHWERLNSDFELRVLDTTFIAHHAEEVIKLLRWLEK	1.25
SEEDKEREHWERLNIDFELRVLDTTFIAHHAEEVIKLLRWLEK	2.41
SEEDKEREHWERLNGDFELRVLDTTFIAHHAEEVIKLLRWLEK	1.29
SEEDKEREHWERLNHDFELRVLDTTFIAHHAEEVIKLLRWLEK	1.42
SEEDKEREHWERLNTDFELRVLDTTFIAHHAEEVIKLLRWLEK	1.4
SEEDKEREHWERLNVDFELRVLDTTFIAHHAEEVIKLLRWLEK	2.08
SEEDKEREHWERLNFDFELRVLDTTFIAHHAEEVIKLLRWLEK	2.37
SEEDKEREHWERLNEDFELRVLDTTFIAHHAEEVIKLLRWLEK	1.23
SEEDKEREHWERLNWDFELRVLDTTFIAHHAEEVIKLLRWLEK	2.45
SEEDKEREHWERLNRDFELAVLDTTFIAHHAEEVIKLLRWLEK	1.04
SEEDKEREHWERLNRDFELCVLDTTFIAHHAEEVIKLLRWLEK	2.37
SEEDKEREHWERLNRDFELDVLDTTFIAHHAEEVIKLLRWLEK	1.18
SEEDKEREHWERLNRDFECRVLDTTFIAHHAEEVIKLLRWLEK	2.03
SEEDKEREHWERLNRDFEARVLDTTFIAHHAEEVIKLLRWLEK	0.896
SEEDKEREHWERLNRDFEGRVLDTTFIAHHAEEVIKLLRWLEK	0.617
SEEDKEREHWERLNRDFENRVLDTTFIAHHAEEVIKLLRWLEK	0.808
SEEDKEREHWERLNRDFEQRVLDTTFIAHHAEEVIKLLRWLEK	0.821
SEEDKEREHWERLNRDFEYRVLDTTFIAHHAEEVIKLLRWLEK	1.14
SEEDKEREHWERLNRDFEIRVLDTTFIAHHAEEVIKLLRWLEK	1.39

Variant	folding stability dG [kcal/mol]
SEEDKEREHWERLNRDFEKRVLDTTFIAHHAEEVIKLLRWLEK	0.521
SEEDKEREHWERLNRDFEERVLDTTFIAHHAEEVIKLLRWLEK	0.795
SEEDKEREHWERLNRDFETRVLDTTFIAHHAEEVIKLLRWLEK	0.795
SEEDKEREHWERLNRDFEFRVLDTTFIAHHAEEVIKLLRWLEK	1.42
SEEDKEREHWERLNRDFEVRVLDTTFIAHHAEEVIKLLRWLEK	1.05
SEEDKEREHWERLNRDFEDRVLDTTFIAHHAEEVIKLLRWLEK	0.732
SEEDKEREHWERLNRDFEWRVLDTTFIAHHAEEVIKLLRWLEK	1.49
SEEDKEREHWERLNRDFEMRVLDTTFIAHHAEEVIKLLRWLEK	0.996
SEEDKEREHWERLNRDFEHRVLDTTFIAHHAEEVIKLLRWLEK	0.971
SEEDKEREHWERLNRDFERRVLDTTFIAHHAEEVIKLLRWLEK	1.21
SEEDKEREHWERLNRDFESRVLDTTFIAHHAEEVIKLLRWLEK	0.796
SEEDKEREHWERLNRDFEPRVLDTTFIAHHAEEVIKLLRWLEK	0.862
SEEDKEREHWERLNRWFELRVLDTTFIAHHAEEVIKLLRWLEK	2.27
SEEDKEREHWERLNRTFELRVLDTTFIAHHAEEVIKLLRWLEK	2.31
SEEDKEREHWERLNRGFELRVLDTTFIAHHAEEVIKLLRWLEK	1.47
SEEDKEREHWERLNRIFELRVLDTTFIAHHAEEVIKLLRWLEK	1.98
SEEDKEREHWERLNRYFELRVLDTTFIAHHAEEVIKLLRWLEK	2.13
SEEDKEREHWERLNRHFELRVLDTTFIAHHAEEVIKLLRWLEK	1.93
SEEDKEREHWERLNRSFELRVLDTTFIAHHAEEVIKLLRWLEK	1.57
SEEDKEREHWERLNRFFELRVLDTTFIAHHAEEVIKLLRWLEK	1.96
SEEDKEREHWERLNRPFELRVLDTTFIAHHAEEVIKLLRWLEK	1.94
SEEDKEREHWERLNREFELRVLDTTFIAHHAEEVIKLLRWLEK	1.43
SEEDKEREHWERLNRQFELRVLDTTFIAHHAEEVIKLLRWLEK	1.6
SEEDKEREHWERLNRMFELRVLDTTFIAHHAEEVIKLLRWLEK	1.73

Variant	folding stability dG [kcal/mol]
SEEDKEREHWERLNRLFELRVLDTTFIAHHAEEVIKLLRWLEK	2.02
SEEDKEREHWERLNRAFELRVLDTTFIAHHAEEVIKLLRWLEK	1.81
SEEDKEREHWERLNRVFELRVLDTTFIAHHAEEVIKLLRWLEK	2.04
SEEDKEREHWERLNRRFELRVLDTTFIAHHAEEVIKLLRWLEK	1.76
SEEDKEREHWERLNRNFELRVLDTTFIAHHAEEVIKLLRWLEK	1.59
SEEDKEREHWERLNRKFELRVLDTTFIAHHAEEVIKLLRWLEK	1.38
SEEDKEREHWERLNRDAELRVLDTTFIAHHAEEVIKLLRWLEK	0.719
SEEDKEREHWERLNRDVELRVLDTTFIAHHAEEVIKLLRWLEK	0.83
SEEDKEREHWERLNRDTELRVLDTTFIAHHAEEVIKLLRWLEK	0.782
SEEDKEREHWERLNRDHELRVLDTTFIAHHAEEVIKLLRWLEK	0.86
SEEDKEREHWERLNRDRELRVLDTTFIAHHAEEVIKLLRWLEK	0.912
SEEDKEREHWERLNRDWELRVLDTTFIAHHAEEVIKLLRWLEK	1.55
SEEDKEREHWERLNRDPELRVLDTTFIAHHAEEVIKLLRWLEK	0.774
SEEDKEREHWERLNRDSELRVLDTTFIAHHAEEVIKLLRWLEK	0.873
SEEDKEREHWERLNRDMELRVLDTTFIAHHAEEVIKLLRWLEK	1.01
SEEDKEREHWERLNRDEELRVLDTTFIAHHAEEVIKLLRWLEK	0.738
SEEDKEREHWERLNRDIELRVLDTTFIAHHAEEVIKLLRWLEK	1.1
SEEDKEREHWERLNRDGELRVLDTTFIAHHAEEVIKLLRWLEK	0.579
SEEDKEREHWERLNRDLELRVLDTTFIAHHAEEVIKLLRWLEK	1.14
SEEDKEREHWERLNRDQELRVLDTTFIAHHAEEVIKLLRWLEK	0.444
SEEDKEREHWERLNRDKELRVLDTTFIAHHAEEVIKLLRWLEK	0.798
SEEDKEREHWERLNRDYELRVLDTTFIAHHAEEVIKLLRWLEK	1.31
SEEDKEREHWERLNRDNELRVLDTTFIAHHAEEVIKLLRWLEK	0.718
SEEDKEREHWERLNRDDELRVLDTTFIAHHAEEVIKLLRWLEK	0.606

Variant	folding stability dG [kcal/mol]
SEEDKEREHWERLNRDFALRVLDTTFIAHHAEEVIKLLRWLEK	1.79
SEEDKEREHWERLNRDFNLRVLDTTFIAHHAEEVIKLLRWLEK	1.5
SEEDKEREHWERLNRDFVLRVLDTTFIAHHAEEVIKLLRWLEK	2.17
SEEDKEREHWERLNRDFQLRVLDTTFIAHHAEEVIKLLRWLEK	1.72
SEEDKEREHWERLNRDFSLRVLDTTFIAHHAEEVIKLLRWLEK	1.83
SEEDKEREHWERLNRDFILRVLDTTFIAHHAEEVIKLLRWLEK	2.34
SEEDKEREHWERLNRDFHLRVLDTTFIAHHAEEVIKLLRWLEK	1.79
SEEDKEREHWERLNRDFYLRVLDTTFIAHHAEEVIKLLRWLEK	2.4
SEEDKEREHWERLNRDFRLRVLDTTFIAHHAEEVIKLLRWLEK	1.87
SEEDKEREHWERLNRDFFLRVLDTTFIAHHAEEVIKLLRWLEK	2.66
SEEDKEREHWERLNRDFLLRVLDTTFIAHHAEEVIKLLRWLEK	2.33
SEEDKEREHWERLNRDFTLRVLDTTFIAHHAEEVIKLLRWLEK	2.19
SEEDKEREHWERLNRDFMLRVLDTTFIAHHAEEVIKLLRWLEK	2.15
SEEDKEREHWERLNRDFGLRVLDTTFIAHHAEEVIKLLRWLEK	1.36
SEEDKEREHWERLNRDFDLRVLDTTFIAHHAEEVIKLLRWLEK	1.42
SEEDKEREHWERLNRDFKLRVLDTTFIAHHAEEVIKLLRWLEK	1.62
SEEDKEREHWERLNRDFPLRVLDTTFIAHHAEEVIKLLRWLEK	1.52
SEEDKEREHWERLNRDFWLRVLDTTFIAHHAEEVIKLLRWLEK	2.88
SEEDKEREHWERTNRDFELRVLDTTFIAHHAEEVIKLLRWLEK	1.52
SEEDKEREHWERVNRDFELRVLDTTFIAHHAEEVIKLLRWLEK	1.39
SEEDKEREHWERWNRDFELRVLDTTFIAHHAEEVIKLLRWLEK	1.75
SEEDKEREHWERYNRDFELRVLDTTFIAHHAEEVIKLLRWLEK	1.77
